In patent publication US20220363623A1, “IMAGING AND THERAPEUTIC COMPOSITIONS” (priority 2019, published 2022):
*1 amine or outer side, *2 acyl side, *3 side chain or, on linkers, in order; H or OH if unused. Where a SMILES comes first, the peptide text is derived from it. Bridges are numbered along the chain shown (N, C = ends). Side-chain parts run from the residue outwards. [ ]: non-standard residue; d: D form. The star is where a group is joined. X1 = O=C([C@@H](Cc1ccccc1)N(c1c(NCCCCCN(O)[*:3])c(=O)c1=O)[*:1])[*:2]; X2 = CC(=O)N(O)CCCCCNC(=O)CCC(=O)N(O)CCCCCN*; Suc = O=C(CCC(=O)[*:2])[*:1]

Tests used:
Set-up in all cases: species or system mice
in vivo [1] = conditions: male, mouse, total radioactivity; for tissue uptake at 1 h: Tumour Uptake % ID/g 1 h pi; for tissue uptake at 18 h: Tumour Uptake % ID/g 18 h pi
Protocol: (§1) PET-CT imaging and Biodistribution. Male Balb/c nude mice (age 8.5 weeks) or Male NSG mice (age 12 weeks) were inoculated subcutaneously on the right flank with 6×10^6 LNCap cells in PBS:Matrigel (1:1). Mice were weighed and tumours measured twice weekly using electronic callipers. Tumour volume (mm^3) was calculated as length×width×height×π/6. Mice were assigned for imaging and biodistribution studies (tumour volumes: 85-450 mm3). ^89Zr-DFOSq-PSMA tracers were then administered intravenously by tail vein injection to 6 mice. At 1, 2, 4 and 18 hr post injection three mice were anaesthetised using isoflurane and placed on the imaging bed of a G8 PET/CT scanner (Perkin Elmer). A CT scan was performed and followed immediately by a 10 min static PET scan. PET images were reconstructed using the maximal likelihood and expectation maximization (ML-EM) algorithm. PET Images were analysed using VivoQuant (Invicro) and Tumour SUVmax or Tumour SUVmax/background average (TBR) determined. After imaging at 18 hr mice were euthanised and selected tissues were excised, weighed and counted using a Capintec (Captus 4000e) gamma counter. A separate cohort of 3 mice was harvested at 1 hr post injection for biodistribution analysis as above. The data was analysed using GraphPad Prism 7 and differences between tracers analysed using a t-test.
(§2) ^89Zr Labelled tracers: The ^89Zr radiolabelled PSMA tracers were injected intravenously via tail vein to LNCaP (human PSMA expressing prostate cancer cell line) tumour bearing mice. At 1, 2, 4 and 18 h post-injection the mice were anaesthetised with isoflurane and imaged over 10 min. The representative PET images of mice injected with ^89Zr radiolabelled PSMA tracers at 1 and 18 hr are shown in FIG. 1 and quantitation of the Tumour SUVmax for each tracer is shown in FIG. 2a. […] There was a trend for higher tumour SUVmax for (4) tracer compared to all other tracers at all time points. […] A comparison of tumour uptake values is shown in FIG. 2b and the tissue biodistribution data for the tracers at 1 and 18 hr is summarised in FIG. 3.
(§3) ^68Ga Labelled tracers: Representative PET images of mice injected with ^68Ga(1) and ^68Ga(4) are shown in FIG. 4 and quantitation of the tumour SUVmax is shown in FIG. 5a. […] Tumour uptake of ^68Ga(4) was 1.6 and 1.8 fold higher than ^68Ga(1) at 1 and 2 hr p.i., respectively. This is consistent with the biodistribution results where tumour % ID/g for ^68Ga(4) was higher than ^68Ga(1) at 1 hr (10.8±1.3 vs 6.5±0.4) and at 2.5 hr (8.6±1.0 vs 4.1±0.5) p.i. […] (6.5±0.4% ID/g at 1 hr vs 4.1±0.5% ID/g at 2.5 hr). In contrast, there was no significant change in ^68Ga(4) tumour retention at 1 and 2.5 p.i. (10.8±1.3% ID/g vs […], FIG. 5b).

[2] = tested on: LNCaP (human PSMA expressing prostate cancer cell line) tumour; conditions: mouse, in vivo
Protocol: as §1, §2, §3

[3] = tested on: LNCaP (human PSMA expressing prostate cancer cell line) tumour; test: in vivo; conditions: mouse
Protocol: as §1, §2, §3

[4] = tested on: AR42J (rat pancreatic cancer cell line) tumour; test: in vivo; conditions: mouse
Protocol: (§4) PET-CT imaging and Biodistribution of Octreotate/tide Tracers. Female Balb/c nude mice (age 9 weeks) were inoculated subcutaneously on the right flank with 3×10^6 AR42J cells in PBS:Matrigel (1:1). Mice were weighed and tumours measured twice weekly using electronic callipers. Tumour volume (mm^3) was calculated as length^2×width/2. 12 mice were assigned for imaging and biodistribution studies (tumour volumes: 170-550 mm^3). DFOSqTIDE (2.5 MBq) and DFOSqTATE (2.2 MBq) were administered intravenously by tail vein injection to mice on. At 1, 2, 4 and 18 hr post injection three mice were anaesthetised using isoflurane and placed on the imaging bed of a G8 PET/CT scanner (Perkin Elmer). A CT scan was performed which was immediately followed by a 10 min static PET scan. PET images were reconstructed using the maximal likelihood and expectation maximization (ML-EM) algorithm. PET images were analysed using VivoQuant (Invicro) and Tumour SUVmax, Tumour SUVmax/background average (TBR) and Tumour SUVmax/liver average (TLR) determined. After imaging at 18 hr mice were euthanised and selected tissues were excised, weighed and counted using a Capintec (Captus 4000e) gamma counter. A separate cohort of 3 mice was harvested at 1 hr post injection for biodistribution analysis. The data was analysed using GraphPad Prism 7 and differences between tracers analysed using a t-test.
AR42J (rat pancreatic cancer cell line) tumour bearing Balb/c nude mice as described above were injected intravenously via tail vein injection with ^89ZrDFOSqTATE or ^89ZrDFOSqTIDE (2-3 MBq). At 1, 2, 4 and 18 h post-injection the mice were anaesthetised with isoflurane and imaged over 10 min. At 1 hr after injection of DFOSqTIDE and DFOSqTATE, uptake into kidney, tumour and liver was observed. Representative PET images of mice injected with DFOSqTIDE and DFOSqTATE are shown in FIG. 12 and quantitation of the tumour SUVmax for each radiotracer is summarised in FIG. 13a.
^68GaDFOSq-TIDE and ^68GaDFOSq-TATE tracers were injected (2-3 MBq, 1 μg, 0.5 nmol) intravenously via tail vein to AR42J (rat pancreatic cancer cell line) tumour bearing Balb/c nude mice. PET images were acquired at 1 and 2 h post-injection (FIGS. 15a and b). […] Quantification of the uptake in the images using Standard Uptake Value (SUVmax=radioactivity in a tissue/injected activity/BW) confirms the higher uptake for ^68GaDFOSq-TATE (1 h; SUVmax 1.8±0.2, compared to 1.21±0.20, FIG. 15c). The higher tumor uptake of ^68GaDFOSqTATE was also associated with a higher degree of tumor retention at 2 h post injection with only a 5% reduction in SUVmax whereas the tumor SUVmax for ^68GaDFOSqTIDE reduced by 30% ^68GaDFOSqTATE at 2 h post injection. Both tracers clear rapidly from the blood and there is low uptake in bone consistent with stable gallium-68 complexes as well as low uptake in muscle. Both tracers have significant uptake in the kidneys and bladder.

in vivo [5] = conditions: female, Balb/c nude, mouse, iv, total radioactivity
Protocol: as §4, with “t-test. The high tumor uptake was confirmed by an ex vivo biodistribution study in the same mouse model where mice were injected with either ^68GaDFOSq-TIDE and ^68GaDFOSq-TATE (2-3 MBq, 1 μg, 0.5 nmol) and then euthanised at either 1 h or 2 h after administration. The amount of injected activity per gram of tissue (% IA/g) in the tumor and major organs was quantified (FIG. 16).” for “t-test.”

Structure (SMILES) | tissue uptake at 1 h (in vivo [1]; iv) [%ID/g] | tissue uptake at 18 h (in vivo [1]; iv) [%ID/g] | Tumour SUVmax 1 h pi [2] | Tumour SUVmax 18 h pi [2] | Tumour SUVmax Clearance % [2] [%] | also measured
CC(=O)N(O)CCCCCNC(=O)CCC(=O)N(O)CCCCCNC(=O)CCC(=O)N(O)CCCCCNc1c(NCCNC(=O)CN(CCN(CC(=O)O)CC(=O)Nc2ccc(C(=O)NCCCCC(NC(=O)NC(CCC(=O)O)C(=O)O)C(=O)O)cc2)CC(=O)O)c(=O)c1=O (stereo not shown) [(2), DFOSq-EDTA-PSMA ligand] | 3.2 | 1 |  |  |  | 
CC(=O)N(O)CCCCCNC(=O)CCC(=O)N(O)CCCCCNC(=O)CCC(=O)N(O)CCCCCNc1c(NCCNC(=O)CN(CCN(CC(=O)O)CC(=O)Nc2ccc(C(=O)NCCCCC(NC(=O)NC(CCC(=O)O)C(=O)O)C(=O)O)cc2)CC(=O)O)c(=O)c1=O (stereo not shown) [^89Zr(2), metal not drawn] |  |  | 0.7 ± 0.03 | 0.3 ± 0.01 | 57 | Tumour Uptake % ID/g 1 h pi ([3]; male, iv, 1 h): 3.2 ± 0.72 % ID/g; Tumour Uptake % ID/g 18 h pi ([3]; male, iv, 18 h): 0.9 ± 0.09 % ID/g
CC(=O)N(O)CCCCCNC(=O)CCC(=O)N(O)CCCCCNC(=O)CCC(=O)N(O)CCCCCNc1c(NCCN(CCNC(=O)CCCC(=O)NCc2ccc(C(=O)NCCCCC(NC(=O)NC(CCC(=O)O)C(=O)O)C(=O)O)cc2)CCNC(=O)CCCC(=O)NCc2ccc(C(=O)NCCCCC(NC(=O)NC(CCC(=O)O)C(=O)O)C(=O)O)cc2)c(=O)c1=O (stereo not shown) [(4), DFOSq-bisPhPSMA ligand] | 9.3 | 3.7 |  |  |  | 
CC(=O)N(O)CCCCCNC(=O)CCC(=O)N(O)CCCCCNC(=O)CCC(=O)N(O)CCCCCNc1c(NCCN(CCNC(=O)CCCC(=O)NCCCCC(NC(=O)NC(CCC(=O)O)C(=O)O)C(=O)O)CCNC(=O)CCCC(=O)NCCCCC(NC(=O)NC(CCC(=O)O)C(=O)O)C(=O)O)c(=O)c1=O (single isomer, unassigned) [(3), DFOSq-bisPSMA ligand] | 5.9 | 2.5 |  |  |  | 
CC(=O)N(O)CCCCCNC(=O)CCC(=O)N(O)CCCCCNC(=O)CCC(=O)N(O)CCCCCNc1c(NCc2ccc(C(=O)NCCCCC(NC(=O)NC(CCC(=O)O)C(=O)O)C(=O)O)cc2)c(=O)c1=O (single isomer, unassigned) [^89Zr(1), metal not drawn] | 4.6 ± 0.45 | 1.7 ± 0.18 | 1.1 ± 0.12 | 0.4 ± 0.05 | 63 | 
CC(=O)N(O)CCCCCNC(=O)CCC(=O)N(O)CCCCCNC(=O)CCC(=O)N(O)CCCCCNc1c(NCc2ccc(C(=O)NCCCCC(NC(=O)NC(CCC(=O)O)C(=O)O)C(=O)O)cc2)c(=O)c1=O (single isomer, unassigned) [^68Ga(1), metal not drawn] |  |  | 1.0 ± 0.02 |  |  | Gall bladder uptake in PET images [2]: high uptake; Gut uptake in PET images [2]: high uptake; Kidney uptake in PET images [2]: high uptake; LNCap tumour uptake in PET images [2]: moderate uptake; Tumour SUVmax 2 h pi [2]: 0.8 ± 0.05; tissue uptake at 1 h (in vivo [1]): 6.5 ± 0.38 %ID/g; tissue uptake at 2.5 h (in vivo [1]; Tumour Uptake % ID/g 2.5 h pi): 4.1 ± 0.51 %ID/g; Tumour Uptake % ID/g 1 h pi [3]: 6.5±0.4 % ID/g; Tumour Uptake % ID/g 2.5 h pi [3]: 4.1±0.5 % ID/g
CC(=O)N(O)CCCCCNC(=O)CCC(=O)N(O)CCCCCNC(=O)CCC(=O)N(O)CCCCCNc1c(N[C@H](Cc2ccccc2)C(=O)N[C@H]2CSSC[C@@H](C(=O)N[C@H](C(=O)O)[C@@H](C)O)NC(=O)[C@H]([C@@H](C)O)NC(=O)[C@H](CCCCN)NC(=O)[C@@H](Cc3c[nH]c4ccccc34)NC(=O)[C@H](Cc3ccc(O)cc3)NC2=O)c(=O)c1=O [DFOSqTATE] (H-[X1]([Suc-X2])CY[dW]KTCT-OH; disulfide 2-7) |  |  |  |  |  | Tumour SUVmax Clearance % [4]: 58%; tissue uptake at 1 h (in vivo [5]; Tumour Uptake % ID/g 1 h pi): 10.4 ± 0.5 %ID/g; tissue uptake at 18 h (in vivo [5]; Tumour Uptake % ID/g 18 h pi): 4.9 ± 0.8 %ID/g
CC(=O)N(O)CCCCCNC(=O)CCC(=O)N(O)CCCCCNC(=O)CCC(=O)N(O)CCCCCNc1c(NCCN(CCNC(=O)CCCC(=O)NCc2ccc(C(=O)NCCCCC(NC(=O)NC(CCC(=O)O)C(=O)O)C(=O)O)cc2)CCNC(=O)CCCC(=O)NCc2ccc(C(=O)NCCCCC(NC(=O)NC(CCC(=O)O)C(=O)O)C(=O)O)cc2)c(=O)c1=O (single isomer, unassigned) [^89Zr(4), metal not drawn] | 9.3 ± 0.33 | 3.7 ± 1.07 | 3.2 ± 0.30 | 1.5 ± 0.18 | 54 | 
